Results: IntAct's records for PubMed 21212807

B1: TRAF family member-associated NF-kappa-B activator (Homo sapiens), Q92844 (parent)
chain: MDKNIGEQLNKAYEAFRQACMDRDSAVKELQQKTENYEQRIREQQEQLSLQQTIIDKLKSQLLLVNSTQDNNYGCVPLLEDSETRKNNLTLDQPQDKVISGIAREKLPKVRRQEVSSPRKETSARSLGSPLLHERGNIEKTFWDLKEEFHKICMLAKAQKDHLSKLNIPDTATETQCSVPIQCTDKTDKQEALFKPQAKDDINRGAPSITSVTPRGLCRDEEDTSFESLSKFNVKFPPMDNDSTFLHSTPERPGILSPATSEAVCQEKFNMEFRDNPGNFVKTEETLFEIQGIDPIASAIQNLKTTDKTKPSNLVNTCIRTTLDRAACLPPGDHNALYVNSFPLLDPSDAPFPSLDSPGKAIRGPQQPIWKPFPNQDSDSVVLSGTDSELHIPRVCEFCQAVFPPSITSRGDFLRHLNSHFNGET
partner: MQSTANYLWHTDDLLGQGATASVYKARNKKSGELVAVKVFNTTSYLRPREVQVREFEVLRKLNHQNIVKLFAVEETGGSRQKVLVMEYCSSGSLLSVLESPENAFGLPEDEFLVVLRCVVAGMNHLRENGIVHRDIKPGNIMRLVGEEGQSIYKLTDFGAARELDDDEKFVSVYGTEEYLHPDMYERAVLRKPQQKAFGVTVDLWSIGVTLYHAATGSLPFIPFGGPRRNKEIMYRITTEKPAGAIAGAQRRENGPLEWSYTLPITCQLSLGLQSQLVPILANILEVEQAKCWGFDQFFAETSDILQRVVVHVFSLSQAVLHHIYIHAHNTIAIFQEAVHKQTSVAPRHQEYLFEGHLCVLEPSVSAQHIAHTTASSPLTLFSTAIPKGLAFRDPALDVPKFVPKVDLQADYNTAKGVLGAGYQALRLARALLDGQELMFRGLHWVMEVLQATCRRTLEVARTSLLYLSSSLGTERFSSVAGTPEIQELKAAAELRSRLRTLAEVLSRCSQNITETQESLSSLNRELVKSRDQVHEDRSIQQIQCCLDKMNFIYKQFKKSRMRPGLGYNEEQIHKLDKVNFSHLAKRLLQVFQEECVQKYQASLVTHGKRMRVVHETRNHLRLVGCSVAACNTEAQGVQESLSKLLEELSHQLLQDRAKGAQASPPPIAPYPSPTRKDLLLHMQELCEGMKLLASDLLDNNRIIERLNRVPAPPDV

Variants of: B1
Conditions: with ikke_human IKBKE

effect of a mutation on the interaction | Variant
increasing interaction | MDKNIGEQLNKAYEAFRQACMDRDSAVKELQQKTENYEQRIREQQEQLSLQQTIIDKLKSQLLLVNSTQDNNYGCVPLLEDSETRKNNLTLDQPQDKVISGIAREKLPKVRRQEVSSPRKETSARSLGSPLLHERGNIEKTFWDLKEEFHKICMLAKAQKDHLSKLNIPDTATETQCSVPIQCTDKTDKQEALFKPQAKDDINRGAPSITSVTPRGLCRDEEDTSFESLSKFNVKFPPMDNDSTFLHSTPERPGILSPATSEAVCQEKFNMEFRDNPGNFVRTEETLFEIQGIDPIASAIQNLKTTDKTKPSNLVNTCIRTTLDRAACLPPGDHNALYVNSFPLLDPSDAPFPSLDSPGKAIRGPQQPIWKPFPNQDSDSVVLSGTDSELHIPRVCEFCQAVFPPSITSRGDFLRHLNSHFNGET [K282R]
